Measurements taken from patent publication US10391180B2, “Self-assembling complex for targeting chemical agents to cells” (CEDARS-SINAI MEDICAL CENTER, priority 2007, dated 2019).

What was measured:
[1] = HerDox stability in serum-containing media at 37° C (Ni beads); format: in vitro ADME; conditions: 10% fetal bovine serum media
Protocol: FIGS. 6 (A)-(B) illustrates conjugate stability under different storage conditions, or in serum. As illustrated in FIG. 6 (A), HerDox was incubated up to 12 days at 4° C., RT, or 37° C. Samples were filtered through ultrafiltration spin columns every other day, and retentate and filtrate absorbances measured at 480 nm to determine relative Dox retention or release from conjugates, respectively. As illustrated in FIG. 6 (B), to mimic extended exposure to cells in culture medium, HerDox immobilized on Ni-NTA beads were incubated with bovine serum in DMEM for the indicated times at 37° C. before each sample was pelleted. Absorbance of supernatants (Filtrates) and bead eluates (Retentates) were measured at 480 nm to detect Dox. Relative Dox release or retention in serum is expressed as normalized to control (corresponding sample lacking serum). N=3 per time point.
The inventors tested the stability of HerDox over 12 days under different storage temperatures: 4° C., room temperature, or 37° C. On each day, a sample underwent ultrafiltration, then filtrates and retentates were measured to determine whether any Dox was released from the complex. […] The inventors also examined HerDox stability in serum-containing media at 37° C. […] Dox retention in the conjugate was also assessed by eluting the conjugate from the beads at each time point.

[2] = system: MDA-MB-435 cells; assay: Intracellular translocation in live cells, Dox fluorescence microscopy; format: cell-based; conditions: for intracellular location of Dox fluorescence: 0.5 uM
Protocol: FIGS. 14 (A)-(B) illustrates comparison of HerDox and Dox intracellular translocation and targets in live cells. MDA-MB-435 cells were incubated with HerDox or free Dox (0.5 uM) at 37° C. Live (unfixed) cells were imaged by brightfield and fluorescence as depicted in […], or DIC and confocal fluorescence, as depicted in FIG. 14 (B), microscopy. Dox is indicated by red or magenta pseudocolor.
To understand the mechanism of HerDox mediated tumor cell death, the inventors examined HER2+ cells microscopically after treatment with HerDox, using Dox fluorescence to detect intracellular location. […] These dynamics, in addition to earlier targeting results, support a receptor-mediated HerDox entry mechanism. Even the intranuclear pattern of Dox when delivered by HerPBK10 differs from free Dox.

[3] = system: hearts of mice; assay: Cardiac tissue histology and echocardiography; format: in vivo; conditions: treated mice
Description: FIGS. 12 (A)-(D) illustrates comparison of HerDox and Dox on (A) tumor growth, (B) animal weight, (C) cardiac tissue, and (D) cardiac function.
At 25 days following injections, tumors and organs were harvested and processed for histochemistry. It is established that Dox can induce acute and long-term cardiotoxicity, therefore, the inventors examined the hearts of mice treated with HerDox or Dox.

[4] = HerDox stability in cell culture media, agarose gel; format: in vitro ADME; conditions: serum-containing culture media, 37° C.
Protocol: FIGS. 9 (A)-(C) illustrates targeting in a mixed cell culture. As illustrated in FIG. 10 (A), equal numbers of MDA-MB-435 and GFP(+) MDA-MB-231 cells were treated with Dox alone (0.5 uM), Her-Dox (containing 0.5 uM Dox), or HerPBK10 (1.2 ug/well, equivalent to HerPBK10 in HerDox). Wells were assayed for GFP fluorescence (to determine relative MDA-MB-231 number) and crystal violet staining (to determine total cell number). As illustrated in FIG. 9 (B), cell survival was determined by calculating the relative doubling time (DT) of experimental (exp) cells normalized by control (con) cells based on the crystal violet stains (total cells) and GFP fluorescence (MDA-MB-231 cells). The DT of MDA-MB-435 was determined by subtracting the DT of MDA-MB-231 from the total cell DT. Relative survival is shown for Day 2 of treatment. As illustrated in FIG. 9 (C), there is stability in cell culture. Aliquots of culture media containing HerDox (after incubation for the indicated times at 37° C.) were electrophoresed on a 2% agarose gel. HerDox incubated at 37° C. in HEPES-buffered saline, lacking serum, was processed in parallel. Dox fluorescence was visualized by UV excitation. Free Dox (Dox alone) is not retained in the gel whereas Dox incorporated in HerDox is. […]

[5] = system: heregulin receptors on MDA-MB-435 (HER2+) cells; assay: Receptor specificity, competition with free heregulin ligand (eHRG); format: cell-based; conditions: eHRG 10× molar excess, HerDox 0.5 uM
Protocol: FIG. 8 illustrates receptor specificity. MDA-MB-435 (HER2+) cells were incubated with free ligand (eHRG) at 10× molar excess of HerDox for 1 h at 4° C. Media was aspirated to remove free eHRG and fresh media containing HerDox (0.5 uM) was added to cells. Cell survival was measured by MTT assay and represented as a % of relative untreated cell numbers.
The inventors compared the effect of HerDox or Dox alone at equivalent dosages (0.5 uM with respect to Dox concentration) on HER2+ and HER2− breast cancer cells in separate dishes. By three days, HerDox reduced HER2+ cell numbers by over 75% whereas HER2− cell survival was unaffected (FIG. 7). […] These findings emphasize the importance of targeting by showing that the untargeted drug affects nontarget (i.e. HER2−) cells. Importantly, the protein carrier, HerPBK10, alone at the equivalent concentration of protein in HerDox (0.1 uM) had no effect on either cell line (FIG. 7), including a lack of proliferation induction. To test receptor targeting, the inventors used free heregulin ligand (Her or eHRG) as a competitive inhibitor. […] As a final in vitro challenge, the inventors tested whether HerDox induces toxicity specifically to HER2+ cells in a mixed culture of HER2+ and HER2− breast cancer cells. […]

B1: HerDox: non-covalent complex of HerPBK10, a small double-stranded nucleic acid and intercalated Dox (conjugate)
chain: LPPRLKEMKSQESAAGSKLVLRCETSSEYSSLRFKWFKNGNELNRKNKPQNIKIQKKPGKSELRINKASLADSGEYMCKVISKLGNDSASANITIVESNEIITGMPASTEGAYVSSESPIRISVSTEGANTSSSTSTSTTGTSHLVKCAEKEKTFCVNGGECFMVKDLSNPSRYLCKCQPGFTGARCTENVPMKVQNQEKAEELYMRRAAMYEEGPPPSYESVVSAAPVAAALGSPFDAPLDPPFVPPRYLRPTGGRNSIRYSELAPLFDTTRVYLVDNKSTDVASLNYQNDHSNFLTTVIQNNDYSPGEASTQTINLDDRSHWGGDLKTILHTNMPNVNEFMFTNKFKARVMVSRLPTKDNQVELKYEWVEFTLPEGNYSETMTIDLMNNAIVEHYLKVGRQNGVLESDIGVKFDTRNFRLGFDPVTGLVMPGVYTNEAFHPDIILLPGCGVDFTHSRLSNLLGIRKRQPFQEGFRITYDDLEGGNIPALLDVDAYQASLKDDTEQGGGGAGGSNSSGSGAEENSNAAAAAMQPVEDMNDHAIRGDTFATRAEEKRAEAEAAAEAAAPAAQPEVEKPQKKPVIKPLTEDSKKRSYNLISNDSTFTQYRSWYLAYNYGDPQTGIRSWTLLCTPDVTCGSEQVYWSLPDMMQDPVTFRSTRQISNFPVVGAELLPVHSKSFYNDQAVYSQLIRQFTSLTHVFNRFPENQILARPPAPTITTVSENVPALTDHGTLPLRNSIGGVQRVTITDARRRTCPYVYKALGIVSPRVLSSRTFKKKKKKKKKK
modifications: left off: small tags and cut ends
notes: non-covalent complex of HerPBK10, a small double-stranded nucleic acid and intercalated Dox
release of Dox from the conjugate in serum [1]: no significant release of Dox | Dox retention by the conjugate in serum ([1]; each time point): completely retained | intracellular location of Dox fluorescence ([2]; 0 min of uptake): mostly at the cell periphery | intracellular location of Dox fluorescence ([2]; 60 min): accumulated in the nucleus | intranuclear pattern of Dox ([2]; live cells, confocal): preferentially accumulates in nucleolar structures | echocardiogram: stroke volume, cardiac output, left ventricular internal dimension and volume [3]: no effect | loss of Dox fluorescence from conjugate over time [4]: no such loss from HerDox is detectable | cell killing by HerDox in presence of free heregulin ligand [5]: completely inhibited
